Consider 40 molecules from article PMC12416549 (2024).

B1: E18Q (designed binder)
chain: MTLQELLREEALRRAEAQAFRYALELLAEKFPEQKEYLLDLAEEIESQIRSLSGVDVEDVRKFLDKEWAWVKELLAEHPAELAEVEAARAARLAELRAEVEAKVAA
B2: E58T (designed binder)
chain: B1 chain with Q18E, E58T
B3: L75S (designed binder)
chain: B1 chain with Q18E, L75S
B4: A69I (designed binder)
chain: B1 chain with Q18E, A69I
B5: L3R (designed binder)
chain: B1 chain with L3R, Q18E
B6: E25F (designed binder)
chain: B1 chain with Q18E, E25F
B7: R50I (designed binder)
chain: B1 chain with Q18E, R50I
B8: V85F (designed binder)
chain: B1 chain with Q18E, V85F
B9: A106I (designed binder)
chain: B1 chain with Q18E, A106I
B10: A83F (designed binder)
chain: B1 chain with Q18E, A83F
B11: R8G (designed binder)
chain: B1 chain with R8G, Q18E
B12: R50P (designed binder)
chain: B1 chain with Q18E, R50P
B13: K35V (designed binder)
chain: B1 chain with Q18E, K35V
B14: L52Y (designed binder)
chain: B1 chain with Q18E, L52Y
B15: R13I (designed binder)
chain: B1 chain with R13I, Q18E
B16: S51V (designed binder)
chain: B1 chain with Q18E, S51V
B17: R50L (designed binder)
chain: B1 chain with Q18E, R50L
B18: E25S (designed binder)
chain: B1 chain with Q18E, E25S
B19: E43L (designed binder)
chain: B1 chain with Q18E, E43L
B20: E73D (designed binder)
chain: B1 chain with Q18E, E73D
B21: K103G (designed binder)
chain: B1 chain with Q18E, K103G
B22: A90I (designed binder)
chain: B1 chain with Q18E, A90I
B23: A98E (designed binder)
chain: B1 chain with Q18E, A98E
B24: A69K (designed binder)
chain: B1 chain with Q18E, A69K
B25: R61E (designed binder)
chain: B1 chain with Q18E, R61E
B26: A90G (designed binder)
chain: B1 chain with Q18E, A90G
B27: R61A (designed binder)
chain: B1 chain with Q18E, R61A
B28: Q4F (designed binder)
chain: B1 chain with Q4F, Q18E
B29: R89V (designed binder)
chain: B1 chain with Q18E, R89V
B30: L6H (designed binder)
chain: B1 chain with L6H, Q18E
B31: A88T (designed binder)
chain: B1 chain with Q18E, A88T
B32: K62D (designed binder)
chain: B1 chain with Q18E, K62D
B33: R92T (designed binder)
chain: B1 chain with Q18E, R92T
B34: E29H (designed binder)
chain: B1 chain with Q18E, E29H
B35: A80T (designed binder)
chain: B1 chain with Q18E, A80T
B36: E99R (designed binder)
chain: B1 chain with Q18E, E99R
B37: E16F (designed binder)
chain: B1 chain with E16F, Q18E
B38: L7C (designed binder)
chain: B1 chain with L7C, Q18E
B39: L6E (designed binder)
chain: B1 chain with L6E, Q18E
B40: L75M (designed binder)
chain: B1 chain with Q18E, L75M

Numbering of substitutions follows the chain as printed. In names and notes the source's numbering stands.

The target of the test is T1, TNFR1 (Homo sapiens, UniProt P19438).
T1 chain: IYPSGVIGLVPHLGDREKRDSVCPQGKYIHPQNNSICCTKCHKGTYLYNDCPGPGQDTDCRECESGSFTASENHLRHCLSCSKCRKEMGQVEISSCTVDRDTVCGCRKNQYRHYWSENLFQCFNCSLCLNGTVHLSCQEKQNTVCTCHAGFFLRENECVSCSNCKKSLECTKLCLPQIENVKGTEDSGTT
The test is described as follows: yeast display SC50.
On to B1, for which the “apparent Kd (screen)” value came out at 539 pM.
Under B2 stands 718 pM.
Consider B3, for which the “apparent Kd (screen)” value was 1050 pM.
Consider B4, for which the “apparent Kd (screen)” value was found to be 653 pM.
B5: the “apparent Kd (screen)” value came out at 2480 pM.
In the case of B6, the “apparent Kd (screen)” value came to 539 pM.
To B7 belongs 956 pM.
Under B8 stands 790 pM; under B9, 593 pM; under B10, 593 pM.
For B11, the “apparent Kd (screen)” value was determined as 593 pM.
To B12 belongs 2250 pM.
Under B13 stands 1540 pM.
B14: the “apparent Kd (screen)” value is 539 pM.
For the molecule B15, the “apparent Kd (screen)” value was found to be 368 pM.
With B16, the “apparent Kd (screen)” value stood at 2050 pM.
Regarding B17, the “apparent Kd (screen)” value was 869 pM.
Under B18 stands 1050 pM.
Under B19 stands 869 pM.
With B20, the “apparent Kd (screen)” value was 539 pM.
As to B21, the “apparent Kd (screen)” value amounted to 490 pM.
Consider B22, for which the “apparent Kd (screen)” value is 490 pM.
Under B23 stands 869 pM; under B24, 593 pM; under B25, 2730 pM.
On to B26, for which the “apparent Kd (screen)” value was 653 pM.
Take B27: the “apparent Kd (screen)” value amounted to 869 pM.
As for B28, the “apparent Kd (screen)” value was determined as 490 pM.
Take B29: the “apparent Kd (screen)” value is 790 pM.
For B30, the “apparent Kd (screen)” value was 8560 pM.
B31: the “apparent Kd (screen)” value turned out to be 1400 pM.
As to B32, the “apparent Kd (screen)” value is 593 pM.
Under B33 stands 593 pM.
B34: the “apparent Kd (screen)” value worked out at 446 pM.
With B35, the “apparent Kd (screen)” value was determined as 718 pM.
To B36 belongs 446 pM; to B37, 1050 pM; to B38, 8560 pM.
On to B39, for which the “apparent Kd (screen)” value came to 8560 pM.
For the molecule B40, the “apparent Kd (screen)” value was found to be 1540 pM.
